Assay results from patent US20240247080A1, “GLP1/GIP/NPY2 RECEPTOR TRIPLE AGONISTS” (Boehringer Ingelheim International GmbH, priority 2022, published 2024).

T1: human GIP receptor (human, UniProt P48546 22-466)
T1 sequence (looked up): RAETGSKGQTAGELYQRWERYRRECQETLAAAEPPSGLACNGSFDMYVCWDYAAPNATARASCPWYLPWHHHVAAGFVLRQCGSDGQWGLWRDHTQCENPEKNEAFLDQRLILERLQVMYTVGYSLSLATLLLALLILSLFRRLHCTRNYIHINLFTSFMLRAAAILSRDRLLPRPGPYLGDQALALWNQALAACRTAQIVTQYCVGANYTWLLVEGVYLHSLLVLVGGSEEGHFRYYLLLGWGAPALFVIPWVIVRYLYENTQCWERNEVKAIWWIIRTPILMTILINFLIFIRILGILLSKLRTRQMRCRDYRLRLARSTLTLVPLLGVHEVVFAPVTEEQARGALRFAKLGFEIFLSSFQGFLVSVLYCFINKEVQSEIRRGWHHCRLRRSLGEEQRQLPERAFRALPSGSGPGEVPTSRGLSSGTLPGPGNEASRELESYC

T2: human neuropeptide Y2 receptor (human, UniProt P49146 1-381)
T2 sequence (looked up): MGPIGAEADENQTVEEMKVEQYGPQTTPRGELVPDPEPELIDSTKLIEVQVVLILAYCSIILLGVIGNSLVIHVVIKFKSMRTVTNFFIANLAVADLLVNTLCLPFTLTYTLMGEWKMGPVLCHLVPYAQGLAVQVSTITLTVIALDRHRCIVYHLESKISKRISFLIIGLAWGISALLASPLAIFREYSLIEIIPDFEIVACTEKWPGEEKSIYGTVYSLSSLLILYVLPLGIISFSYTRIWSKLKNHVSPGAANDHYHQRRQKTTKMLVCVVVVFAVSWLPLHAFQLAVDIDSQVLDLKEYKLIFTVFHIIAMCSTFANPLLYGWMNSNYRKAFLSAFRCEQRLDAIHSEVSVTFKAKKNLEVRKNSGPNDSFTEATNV


What was measured:
Experiment in all cases: cell-based or functional assay
human GLP-1 receptor = human GLP-1 receptor (human, UniProt P43220 24-463)
human GIP receptor = biological target: T1, human GIP receptor
[1] = biological target: T2, human neuropeptide Y2 receptor

| Binder | EC50 CreLuc hGLP1R 0.5% hP (human GLP-1 receptor) [nM] | EC50 CreLuc hGLP1R 100% hP (human GLP-1 receptor) [nM] | EC50 CreLuc hGIPR 0.5% hP (human GIP receptor) [nM] | EC50 CreLuc hGIPR 100% hP (human GIP receptor) [nM] | EC50 CreLuc hNPY2R 0.5% hP [1] [nM] | EC50 CreLuc hNPY2R 100% hP [1] [nM] |
| --- | --- | --- | --- | --- | --- | --- |
| YXEGTFTSDYSIXLEKQAQXAFVEWLIKGGPSSPASLRHYYNWLTRQRY (Aib at 2, 13, 20; K28 side chain: C20DA-gGlu-gGlu-gGlu-gGlu-gGlu-gGlu-eLys; C-terminal NH2) [Compound 95] | 0.13 | 2.76 | 0.13 | 0.75 | 20.6 | 56.9 |
| YXEGTFTSDYSIXLEKQAQXAFVQWLIKGGPEEGASLRHYYNWLTRQRY (Aib at 2, 13, 20; K28 side chain: C20DA-gGlu-gGlu-gGlu-gGlu-gGlu-gGlu-eLys; C-terminal NH2) [Compound 89] | 0.25 | 8.9 | 1.01 | 1.7 | 14.8 | 42.4 |
| YXEGTFTSDYSIXLEKQAQXAFVEWLIKGGPSSGISLRHYYNWLTRQRY (Aib at 2, 13, 20; K28 side chain: C20DA-gGlu-gGlu-gGlu-gGlu-gGlu-gGlu-eLys; C-terminal NH2) [Compound 94] | 0.09 | 1.98 | 0.22 | 1.04 | 12.3 | 40.2 |
| YXEGTFTSDYSIXLEKQAQXAFVEWLIKGGPSEYESLRHYYNWLTRQRY (Aib at 2, 13, 20; K28 side chain: C20DA-gGlu-gGlu-gGlu-gGlu-gGlu-gGlu-eLys; C-terminal NH2) [Compound 93] | 0.22 | 8.97 | 0.14 | 2.35 | 15.3 | 85.7 |
| YXEGTFTSDYSIXLEKQAQXAFVEWLIKGGPSSGATLRHYYNWLTRQRY (Aib at 2, 13, 20; K28 side chain: C20DA-gGlu-gGlu-gGlu-gGlu-gGlu-gGlu-eLys; C-terminal NH2) [Compound 91] | 0.17 | 4.16 | 0.21 | 1.72 | 16.2 | 53.1 |
| YXEGTFTSDYSIXLEKQAQXAFVEWLIKGGPSSGVSLRHYYNWLTRQRY (Aib at 2, 13, 20; K28 side chain: C20DA-gGlu-gGlu-gGlu-gGlu-gGlu-gGlu-eLys; C-terminal NH2) [Compound 96] | 0.14 | 2.12 | 0.19 | 1.07 | 15.5 | 44.8 |
| YXEGTFTSDLSIXLEKQAQXAFVEWLIKGGPSSGASLRHYYNWLTRQRY (Aib at 2, 13, 20; K28 side chain: C20DA-gGlu-gGlu-gGlu-gGlu-gGlu-gGlu-eLys; C-terminal NH2) [Compound 172] | 0.07 | 2 | 0.21 | 1.83 | 20.2 | 86.1 |
| YXEGTFTSDYSIXLEDQAQXAFVEWLIKGGPSSGASLRHYYNWLTRQRY (Aib at 2, 13, 20; K28 side chain: C20DA-gGlu-gGlu-gGlu-gGlu-gGlu-gGlu-eLys; C-terminal NH2) [Compound 90] | 0.3 | 5.39 | 1.03 | 6.75 | 18.4 | 71.9 |
